Results on five molecules are retold here after US7105647 (WISCONSIN ALUMNI RESEARCH FOUNDATION, dated 2006).

The labels stand for the following.
B1: human aryl hydrocarbon receptor (AHR), full length (receptor, UniProt P35869 1-848, looked up)
chain: MNSSSANITYASRKRRKPVQKTVKPIPAEGIKSNPSKRHRDRLNTELDRLASLLPFPQDVINKLDKLSVLRLSVSYLRAKSFFDVALKSSPTERNGGQDNCRAANFREGLNLQEGEFLLQALNGFVLVVTTDALVFYASSTIQDYLGFQQSDVIHQSVYELIHTEDRAEFQRQLHWALNPSQCTESGQGIEEATGLPQTVVCYNPDQIPPENSPLMERCFICRLRCLLDNSSGFLAMNFQGKLKYLHGQKKKGKDGSILPPQLALFAIATPLQPPSILEIRTKNFIFRTKHKLDFTPIGCDAKGRIVLGYTEAELCTRGSGYQFIHAADMLYCAESHIRMIKTGESGMIVFRLLTKNNRWTWVQSNARLLYKNGRPDYIIVTQRPLTDEEGTEHLRKRNTKLPFMFTTGEAVLYEATNPFPAIMDPLPLRTKNGTSGKDSATTSTLSKDSLNPSSLLAAMMQQDESIYLYPASSTSSTAPFENNFFNESMNECRNWQDNTAPMGNDTILKHEQIDQPQDVNSFAGGHPGLFQDSKNSDLYSIMKNLGIDFEDIRHMQNEKFFRNDFSGEVDFRDIDLTDEILTYVQDSLSKSPFIPSDYQQQQSLALNSSCMVQEHLHLEQQQQHHQKQVVVEPQQQLCQKMKHMQVNGMFENWNSNQFVPFNCPQQDPQQYNVFTDLHGISQEFPYKSEMDSMPYTQNFISCNQPVLPQHSKCTELDYPMGSFEPSPYPTTSSLEDFVTCLQLPENQKHGLNPQSAIITPQTCYAGAVSMYQCQPEPQHTHVGQMQYNPVLPGQQAFLNKFQNGVLNETYPAELNNINNTQTTTHLQPLHHPSEARPFPDLTSSGFL
notes: Full length in yeast (PRSAHR) and in the Hsp90 co-IP (huAHR); also called huAHR; Ah receptor

For experiment [1], the target named is T1, Hsp90.
T1 construct: Endogenous Hsp90 of the translation lysate
Nature of the experiment: co-IP of 35S-labelled in vitro translated protein with anti-Hsp90 antibody 3G3p90, phosphoimager. The protocol:
Coimmunoprecipitation with Hsp90. Each MOP construct was in vitro translated in the presence of [^35S]-methionine in a TNT coupled transcription/translation system (Promega). Hsp90 immunoprecipitation assays were performed with monoclonal antibody 3G3p90 or a control IgM antibody, TEPC 183 (Sigma) essentially as described. Each immunoprecipitation was subjected to SDS-PAGE, and the resulting gel was dried. The level of radioactivity in each coprecipitated protein band was quantified on a Bio-Rad GS-363 Molecular Imager System. The amount of protein immunoprecipitated with the Hsp90 antibody is presented as a percentage of the amount of murine AHR immunoprecipitated in parallel assays.
4. Interaction of MOPs with Hsp90. In an effort to assess a MOP's ability to interact with Hsp90, we performed coimmunoprecipitation assays with anti Hsp90 antibodies. Given the remarkable stability of the Hsp90 complex with the AHR from the C57BL/6J mouse, we used this receptor species as a reference and compared all interactions relative to it. As additional controls, we immunoprecipitated ARNT and the human AHR as negative and positive controls, respectively. Despite our ability to readily detect huAHR-Hsp90 interactions, we were unable to detect ARNT, MOP2 or MOP5 interactions with Hsp90. In contrast, huAHR, MOP1, MOP3 and MOP4 all immunoprecipitated with HSP90-specific antisera. […]

Experiment [2] has as its target T2, AH receptor nuclear translocator (ARNT), full length (human, UniProt P27540 1-789).
T2 construct: Full length: in vitro translated, expressed in yeast (PL574) or transfected; Endogenous ARNT in the Hep3B experiment; also called huARNT; hARNT
Nature of the experiment: functional data, assay not described.

Experiment [3] concerns the target B1. Nature of the experiment: co-IP of 35S-labelled in vitro translated protein with AHR-specific antiserum. The protocol: (§1) 1. Interaction of MOPs with the AHR and ARNT in vitro; Coimmunoprecipitation experiments. We first performed coimmunoprecipitation experiments to determine if MOPs 1–4 had the capacity to interact with either the AHR or ARNT in vitro. These proteins were expressed in a reticulocyte lysate system in the presence of ^35S-methionine and then incubated in the presence or absence of the AHR or ARNT. Complex formation was assayed by coimmunoprecipitation with AHR or ARNT specific antisera, followed by quantitation of coimmunoprecipitated ^35S-labeled MOP by phosphoimage analysis. Interactions were identified by a reproducible increase in an AHR or ARNT-dependent precipitation of MOP protein. Because we have observed considerable variability in this coimmunoprecipitation assay, each experiment was performed at least three times.

Experiment [4] deals with T2, AH receptor nuclear translocator …. Nature of the experiment: co-IP of 35S-labelled in vitro translated protein with ARNT-specific antiserum. The protocol: as §1
For experiment [5] the target is unchanged. Nature of the experiment: yeast interaction trap (mating), X-Gal overlay. The protocol:
Interaction Screen Against Known bHLH-PAS Proteins. LexAbHLH-PAS fusion proteins ("baits") of HIF1α, HIF2α, MOP3, MOP4, AHR, ARNT, and CLOCK were transformed into the L40 strain of yeast. The full-length ("fish") MOP3 and ARNT plasmids were transformed into the AMR70 yeast strain, and these transformants were plated onto yeast complete media plates (Kaiser et al., 1994, in *Methods in Yeast Genetics*, Cold Spring Harbor Press, Plainview, N.Y.). The L40 yeast harboring the bait constructs were replica plated onto these yeast complete media plates and mated for 8 hr at 30° C. The plates were then replica plated onto selective media and grown for an additional day at 30° C. 5-Bromo-4-chloro-3-indolyl […]-galactoside (X-Gal) overlay assays were performed to determine the relative expression of the lacZ reporter gene (Bohen and Yamamoto, 1993, PNAS 90: 11424–11428). Western blot analysis, using LexA-specific sera, was performed on extract from each transformant to confirm expression of the fusion protein (see Example 1).

T2 sequence (P27540 whole entry): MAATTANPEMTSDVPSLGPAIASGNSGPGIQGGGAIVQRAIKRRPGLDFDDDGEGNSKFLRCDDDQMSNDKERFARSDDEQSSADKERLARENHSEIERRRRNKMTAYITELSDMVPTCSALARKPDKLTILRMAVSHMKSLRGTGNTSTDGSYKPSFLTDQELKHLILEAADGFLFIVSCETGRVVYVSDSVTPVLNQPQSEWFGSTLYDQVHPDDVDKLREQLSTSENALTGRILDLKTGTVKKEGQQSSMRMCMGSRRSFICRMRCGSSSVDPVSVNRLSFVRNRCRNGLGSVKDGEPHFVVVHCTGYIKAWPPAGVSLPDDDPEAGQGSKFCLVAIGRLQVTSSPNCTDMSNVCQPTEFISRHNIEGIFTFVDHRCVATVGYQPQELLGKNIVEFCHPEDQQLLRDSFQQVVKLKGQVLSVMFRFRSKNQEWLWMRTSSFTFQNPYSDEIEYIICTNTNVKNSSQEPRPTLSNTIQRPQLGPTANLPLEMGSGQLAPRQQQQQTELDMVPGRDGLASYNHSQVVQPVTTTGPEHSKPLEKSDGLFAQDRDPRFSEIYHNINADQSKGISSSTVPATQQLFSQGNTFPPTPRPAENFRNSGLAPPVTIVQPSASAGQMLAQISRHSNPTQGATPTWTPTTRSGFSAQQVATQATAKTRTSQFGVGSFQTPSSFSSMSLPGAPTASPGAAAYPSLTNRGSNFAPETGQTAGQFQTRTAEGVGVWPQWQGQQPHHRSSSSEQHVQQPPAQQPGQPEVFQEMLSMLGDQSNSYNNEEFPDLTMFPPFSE

Take B1: the “percent of the amount of murine AHR immunoprecipitated with the Hsp90 antibody” value in experiment [1] came to 53%.

B2: MOP6 (other)
chain: MAPTKPSFQQDPSRRERLQALRKEKSRDAARSRRGKENFEFYELAKLLPLPAAITSQLDKASIIRLTISYLKMRDFANQGDPPWNLRMEGPPPNTSVKGAQRRRSPSALAIEVFEAHLGSHILQSLDGFVFALNQEGKFLYISETVSIYLGLSQVELTGSSVFDYVHPGDHVEMAEQLGMKLPPGRGLLSQGTAEDGASSASSSSQSETPEPVESTSPSLLTTDNTLERSFFIRMKSTLTKRGVHIKSSGYKVIHITGRLRLRVSLSHGRTVPSQIMGLVVVAHALPPPTINEVRIDCHMFVTRVNMDLNIIYCENRISDYMDLTPVDIVGKRCYHFIHAEDVEGIRHSHLDLLNKGQCVTKYYRWMQKNGGYIWIQSSATIAINAKNANEKNIIWVNYLLSNPEYKDTPMDIAQLPHLPEKTSESSETSDSESDSKDTSGITEDNENSKSDEKGNQSENSEDPEPDRKKSGNACDNDMNCNDDGHSSSNPDSRDSDDSFEHSDFENPKAGEDGFGALGAMQIKVERYVESESDLRLQNCESLTSDSAKDSDSAGEAGAQASSKHQKRKKRRKRQKGGSASRRRLSSASSPGGLDAGLVEPPRLLSSPNSASVLKIKTEISEPINFDNDSSIWNYPPNREISRNESPYSMTKPPSSEHFPSPQGGGGGGGGGGGLHVAIPDSVLTPPGADG
notes: Mentioned only in the general description
Take B2: the binding result in experiment [2] was “binds”.

B3: MOP4 (other)
chain: MDEDEKDRAKRASRNKSEKKRRDQFNVLIKELSSMLPGNTRKMDKTTVLEEVIGFLQKHNEVSAQTEICDIQQDWKPSFLSNEEFTQLMLEALDGFIIAVTTDGSIIYVSDSITPLLGHLPSDVMDQNLLNFLPEQEHSEVYKILSSHMLVTDSPSPEYLKSDGDLEFYCHLLRGSLNPKEFPTYEYIKFVGNFRSYNNVPSPSCNGFDNTLSRPCRVPLGKEVCFIATVRLATPQFLKEMCIVDEPLEEFTSRHSLEWKFLFLDHRAPPIIGYLPFEVLGTSGYDYYHIDDLELLARCHQHLMQFGKGKSCCYRFLTKGQQWIWLQTHYYITYHQWNSKPEFIVCTHSVVSYADVRVERRQELALEDPPSEALHSSALKDKGSSLEPRQHFNALDVGASGLNTSHSPSASSRSSHKSSHTAMSEPTSTPTKLMAEASTPALPRSATLPQELPVPGLSQAATMPAPLPSPSSCDLTQQLLPQTVLQSTPAPMAQFSAQFSMFQTIKDQLEQRTRILQANIRWQQEELHKIQEQLCLVQDSNVQMFLQQPAVSLSFSSTQRPEAQQQLQQRSAAVTQPQLGAGPQLPGQISSAQVTSQHLLRESSVISTQGPKPMRSSQLMQSSGRS
notes: also called huMOP4
Turning to B3, the binding result in experiment [3] and in experiment [4] was “no binding” in each case. Also, the “percent of the amount of murine AHR immunoprecipitated with the Hsp90 antibody” value in experiment [1] was 31%.

B4: LexAbHLH-PAS fusion of CLOCK (PL828) (other, UniProt P0A7C2 1-202, looked up)
chain: MKALTARQQEVFDLIRDHISQTGMPPTRAEIAQRLGFRSPNAAEEHLKALARKGVIEIVSGASRGIRLLQEEEEGLPLVGRVAAGEPLLAQQHIEGHYQVDPSLFKPNADFLLRVSGMSMKDIGIMDGDLLAVHKTQDVRNGQVVVARIDDEVTVKRLKKQGNKVELLPENSEFKPIVVDLRQQSFTIEGLAVGVIRNGDWLMLFTVSCSKMSSIVDRDDSSIFDGLVEEDDKDKAKRVSRNKSEKKRRDQFNVLIKELGSMLPGNARKMDKSTVLQKSIDFLRKHKEITAQSDASEIRQDWKPTFLSNEEFTQLMLEALDGFFLAIMTDGSIIYVSESVTSLLEHLPSDLVDQSIFNFIPEGEHSEVYKILSTHLLESDSLTPEYLKSKNQLEFCCHMLRGTIDPKEPSTYEYVKFIGNFKSLNSVSSSAHNGFEGTIQRTHRPSYEDRVCFVATVRLATPQFIKEMCTVEEPNEEFTSRHSLEWKFLFLDHRAPPIIGYLPFEVLGTSGYDYYHVDDLENLAKCHEHLMQYGKGKSCYYRFLTKGQQWIWLQTHYYITYHQWNSRPEFIVCTHTVVSYAEVRAERRRELG
notes: range 1-202;domain: bHLH-PAS domains; also called LexA fusion of CLOCK
Take B4: the binding result in experiment [5] is listed as “no binding”.

B5: LexA control (other, UniProt P0A7C2 1-202, looked up)
chain: MKALTARQQEVFDLIRDHISQTGMPPTRAEIAQRLGFRSPNAAEEHLKALARKGVIEIVSGASRGIRLLQEEEEGLPLVGRVAAGEPLLAQQHIEGHYQVDPSLFKPNADFLLRVSGMSMKDIGIMDGDLLAVHKTQDVRNGQVVVARIDDEVTVKRLKKQGNKVELLPENSEFKPIVVDLRQQSFTIEGLAVGVIRNGDWL
With B5, the binding result in experiment [5] is “no binding”.
